This test deals with neonatal Fc Receptor, FcRn (UniProt P55899). Nature of the test: SPR. A general note: SPR reads the build-up and loss of mass on a sensor chip optically.

Here are results for two substances from article PMC8579703.

Usually Kd stands for the free concentration of one partner at which half of the binding sites on the other are occupied at equilibrium, for simple one-to-one binding. A higher Kd goes with a looser complex. “ACE2-IgG4-Fc fusion construct 1 (ACE2 Q18-G732 wildtype fused to IgG4-Fc S228P) (from UniProt Q9BYF1 18-732)” displayed a Kd of 2.9 µM.
The result for “ACE2-IgG4-Fc fusion construct 3 (ACE2 Q18-G732 H374N/H378N fused to IgG4-Fc S228P) (from UniProt Q9BYF1 18-732)” reads 3.9 µM.
